According to patent publication US8518399B2, “Methods of treating infections originating from viruses in the herpesviridae family” (Tamir Biotechnology, Inc., priority 2010, dated 2013):

Legend:
human cytomegalovirus = assay: Antiviral activity against human cytomegalovirus, CPE-inhibition assay in primary HFF cells with real time PCR readout; type: cell-based; conditions: primary human foreskin fibroblast (HFF) cells; SI greater than 1 = active; FIGS. 1 and 2
Method: (§1) To evaluate the activity of the three tested RNases against human herpesviridae infections, the following quantitative PCR assay was used:
(§2) Solutions of the tested RNases were prepared in cell culture medium without use of dimethyl sulfoxide (“DMSO”). DMSO is unnecessary because the tested RNases are water-soluble.
Antiviral activity against herpes simplex virus-1, herpes simplex virus-2, and human cytomegalovirus was evaluated by cytopathic effect inhibition (“CPE-inhibition”) assays in primary human foreskin fibroblast (HFF) cells. Primary HFF cells were counted and 2.5×10^4 cells per well were seeded into 96-well plates in 100 it of minimal essential medium supplemented with 10% fetal bovine serum (“FBS”). The cells were then incubated for 24 hours at 37° C. in a 5% CO2 humidified incubator. Solutions of the tested RNases were added to triplicate wells to yield a final concentration of 10 μM, and diluted to yield concentrations of 2, 0.4, 0.08, 0.016, and 0.0032 μM. The plates were then incubated for 1 h and 100 μl of a virus suspension was added. […] Total DNA from the cultures was harvested and viral genome copy number was determined by real time PCR assays.
(§3) For all the assays, cytotoxicity was evaluated in the same cell line used to evaluate antiviral activity and was assessed by CellTiter-Glo assays.

roseolovirus-6A = assay: Antiviral activity against roseolovirus-6A in HSB-2 cells, viral DNA by real time PCR; type: cell-based, human; conditions: SI greater than 1 = active, FIGS. 1 and 2
Method: as §1, §2
Antiviral activity against roseolovirus-6B was evaluated in Molt-3 cells. The tested RNases were diluted using methods used for the CPE-inhibition assay in RPMI 1640 medium (Roswell Park Memorial Institute) supplemented with 10% FBS, L-glutamine, penicillin and gentamicin. 2×10^4 Molt-3 cells were added to each well, and infected cells were added to achieve the desired multiplicity of infection and incubated at 37° C. for 4 days. The accumulation of viral DNA was determined by real time PCR assays. Antiviral activity against roseolovirus-6A was evaluated by similar procedures, but using HSB-2 cells.
as §3

B1: ranpirnase (protein, UniProt P22069 1-104, looked up)
Protein P-30: QDWLTFQKKHITNTRDVDCDNIMSTNLFHCKDKNTFIYSRPEPVKAICKGIIASKNVLTTSEFYLSDCNVTSRPCKYKLKKSTNKFCVTCENQAPVHFVGVGSC
notes: An RNase, disclosed and claimed in U.S. Pat. No. 5,559,212
Human cytomegalovirus
  activity against human cytomegalovirus (judged by SI = CC50/EC50): extraordinarily active
roseolovirus-6A
  activity against roseolovirus-6A (judged by SI = CC50/EC50): entirely inactive
